The target in test [1] is T1, 6×His tagged human SIRPα v1 ECD recombinant protein (human, UniProt P78324 31-373).
T1 construct: extracellular domain; bought; also called hSIRPα V1 (SPR antigen)
Briefly: SPR (Biacore), antibody captured. In outline: (§1)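 Chimeric anti-SIRPα antibodies captured on CM5 via anti-human antibody kit; His-tagged SIRPα ECD proteins injected as dilution series at 30 μl/min for 180 s, dissociation 400 s, regeneration with 3 M MgCl₂. Ka, Kd and KD from 1:1 binding model fits.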
Background: SPR reads the build-up and loss of mass on a sensor chip optically.

For test [2], the target named is T2, 6×His tagged human SIRPα v2 ECD recombinant protein (human). Description: SPR (Biacore), antibody captured. The gist of the method: as §1
T2 sequence (chain, as listed by the source): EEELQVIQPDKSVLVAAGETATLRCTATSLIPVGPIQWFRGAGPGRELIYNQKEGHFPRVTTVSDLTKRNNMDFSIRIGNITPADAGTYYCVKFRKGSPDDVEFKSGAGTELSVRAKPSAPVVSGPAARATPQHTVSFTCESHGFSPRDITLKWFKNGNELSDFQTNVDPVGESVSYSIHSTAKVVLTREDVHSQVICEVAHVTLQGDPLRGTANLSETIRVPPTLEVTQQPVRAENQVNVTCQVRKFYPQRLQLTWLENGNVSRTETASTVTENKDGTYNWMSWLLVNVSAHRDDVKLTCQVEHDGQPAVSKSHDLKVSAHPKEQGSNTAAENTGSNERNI
The target of test [3] is T3, 6×His tagged C57BL/6 mouse SIRPα ECD recombinant protein (mouse (C57BL/6), UniProt P97797 32-373).
T3 construct: extracellular domain; bought; also called mSIRPα (C57BL/6); mouse SIRPα (C57BL/6) ECD
T3 sequence: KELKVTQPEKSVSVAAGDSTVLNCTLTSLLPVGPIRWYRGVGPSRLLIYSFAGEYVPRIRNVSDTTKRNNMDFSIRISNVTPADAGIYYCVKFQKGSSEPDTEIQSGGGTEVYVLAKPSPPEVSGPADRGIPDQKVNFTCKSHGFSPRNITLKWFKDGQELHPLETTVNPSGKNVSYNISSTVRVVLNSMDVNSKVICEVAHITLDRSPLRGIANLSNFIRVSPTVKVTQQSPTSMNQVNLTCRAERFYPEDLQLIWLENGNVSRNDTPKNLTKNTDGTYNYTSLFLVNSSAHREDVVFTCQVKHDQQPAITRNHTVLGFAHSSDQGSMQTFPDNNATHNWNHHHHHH
Description: SPR (Biacore), antibody captured. The gist of the method: as §1

Test [4] concerns the target T3, 6×His tagged C57BL/6 mouse SIRPα ECD …. Description: ELISA on coated mouse SIRPα (C57BL/6) ECD [Continued) F]. For orientation: ELISA stands for enzyme-linked immunosorbent assay.
Test [5] has as its target T4, full length C57BL/6 mouse SIRPα stably expressed on CHOK1 cells (mouse (C57BL/6), UniProt P97797 32-513).
T4 construct: whole, on cells; also called CHOK1-C57BL/6 mouse SIRPα-2.22 cells
T4 sequence (looked up): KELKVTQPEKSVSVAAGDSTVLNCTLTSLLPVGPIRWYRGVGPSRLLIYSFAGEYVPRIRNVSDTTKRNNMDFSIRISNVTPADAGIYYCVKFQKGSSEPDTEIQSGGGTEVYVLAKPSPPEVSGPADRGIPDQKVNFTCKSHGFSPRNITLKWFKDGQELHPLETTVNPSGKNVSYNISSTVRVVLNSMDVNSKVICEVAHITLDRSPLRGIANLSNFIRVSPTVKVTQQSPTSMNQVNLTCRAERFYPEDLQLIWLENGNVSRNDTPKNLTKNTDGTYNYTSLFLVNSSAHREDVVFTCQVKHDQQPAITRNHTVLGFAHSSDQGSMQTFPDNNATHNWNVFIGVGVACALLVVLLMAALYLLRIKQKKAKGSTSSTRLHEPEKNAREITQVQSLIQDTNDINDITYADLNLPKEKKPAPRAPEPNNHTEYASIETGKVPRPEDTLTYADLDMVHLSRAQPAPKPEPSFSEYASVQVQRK
Description: FACS on CHOK1-C57BL/6 mouse SIRPα-2.22 cells. Here is the method: Species cross reactivity of the purified hybridoma antibodies against human, cyno and mouse SIRPα was determined by FACS assay using CHOK1-human SIRPα v1-1B4 cells, CHOK1-cyno SIRPα-2A2 cells, and CHOK1-C57BL/6 mouse SIRPα-2.22 cells, which stably expressing SIRPα protein. Briefly the antibodies were incubated with 2×10⁵ target cells at 4° C. for 1 hour. After washing, fluorescence labeled anti-mouse or anti-human IgG 2nd antibody (Life Technologies) was added and incubated at 4° C. for 1 hour. Geometric median fluorescence intensity was detected and EC₅₀ was calculated. In particular, it is noted, in contrast to the other antibodies tested in the same experiment, 060 cannot bind with cyno SIRPα and 035 has cross reactivity against C57BL/6 mouse SIRPα.

For test [6], the target named is T2, 6×His tagged human SIRPα v2 ECD …. Description: SPR (Biacore), antibody captured, 6×His tagged human SIRPα v2 ECD as analyte. On the procedure: Anti-SIRPα chimeric antibodies were characterized for binding affinity against human SIRPα v1, human SIRPα v2 and C57BL/6 mouse SIRPα using Biacore (GE). Briefly the antibodies to be tested were captured to CM5 chip (GE) using Human Antibody Capture Kit (GE). The antigens of 6×His tagged human SIRPα v1, human SIRPα v2 and C57BL/6 mouse SIRPα ECD recombinant proteins were serially diluted for multiple doses and injected at 30 μl/min for 180 s. Buffer flow was maintained for dissociation of 400 s. 3 M MgCl₂ was used for chip regeneration. The association and dissociation curves were fit with 1:1 binding model, and the Ka/Kd/KD values for each antibody were calculated.
hu035.01, the first version of humanized 035, was characterized by FACS assay using CHOK1-human SIRPα v1-1B4 cells, ELISA assay using Fc tagged human SIRPα v2 ECD recombinant protein and SPR analysis using the antigen of 6×His tagged human SIRPα v2 ECD recombinant protein (refer to methods described in Example 3.4, Example 3.3 and Example 4.3). […] In particular, hu035.01 cannot be detected to bind with C57BL/6 mouse SIRPα ECD in ELISA assay possibly due to reduced binding activity (FIG. 5B).

Test [7] concerns the target T1, 6×His tagged human SIRPα v1 ECD …. Description: SPR (Biacore).
The target of test [8] is T3, 6×His tagged C57BL/6 mouse SIRPα ECD …. Description: SPR (Biacore).
The target in test [9] is T5, biotin labeled soluble human SIRPα v1 ECD recombinant protein (human, UniProt P78324 31-373, biotin labeled).
T5 construct: extracellular domain
T5 sequence (P78324 31-373): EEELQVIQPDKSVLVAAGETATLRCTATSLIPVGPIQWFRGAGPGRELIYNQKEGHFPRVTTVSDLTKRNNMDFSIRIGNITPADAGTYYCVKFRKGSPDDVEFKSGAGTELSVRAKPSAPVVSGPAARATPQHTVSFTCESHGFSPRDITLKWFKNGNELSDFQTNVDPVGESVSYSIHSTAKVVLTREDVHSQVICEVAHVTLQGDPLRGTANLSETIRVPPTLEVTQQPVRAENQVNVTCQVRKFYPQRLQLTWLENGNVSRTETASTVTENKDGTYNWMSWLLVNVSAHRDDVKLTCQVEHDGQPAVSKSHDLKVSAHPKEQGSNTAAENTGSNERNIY
Briefly: competitive ELISA, hSIRPα/CD47 blocking.

The target in test [10] is T3, 6×His tagged C57BL/6 mouse SIRPα ECD …. Briefly: ELISA on coated mouse SIRPα (C57BL/6) ECD, antibody at 10, 1 and 0.1 ug/ml [right panel mSIRPα ECD (C57BL/6].

For orientation: Kd means the free concentration of one partner at which half of the binding sites on the other are occupied at equilibrium, for simple one-to-one binding. The term koff denotes the rate constant with which the complex falls apart. As usually defined, the kon is a measure of how fast the partners come together. The EC50 (read off the curve) is the concentration giving half of the maximal effect. As usually defined, the IC50 is the midpoint of a concentration-inhibition curve.

T1 sequence (P78324 other isoform, or with tags, fused parts or gaps): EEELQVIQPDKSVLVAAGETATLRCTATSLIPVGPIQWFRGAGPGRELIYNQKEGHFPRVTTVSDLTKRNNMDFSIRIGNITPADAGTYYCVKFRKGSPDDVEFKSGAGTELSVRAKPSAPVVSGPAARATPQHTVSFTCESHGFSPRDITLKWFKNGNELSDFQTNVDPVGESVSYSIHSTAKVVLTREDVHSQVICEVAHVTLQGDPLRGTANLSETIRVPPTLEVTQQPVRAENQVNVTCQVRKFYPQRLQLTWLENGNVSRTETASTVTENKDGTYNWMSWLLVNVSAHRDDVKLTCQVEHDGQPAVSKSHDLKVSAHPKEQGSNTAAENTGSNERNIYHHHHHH

B1: chimeric antibody 035c (antibody, V domains shown)
VH: QIQLVQSGPELRKPGETVKISCKASGYSFTNYAMNWVKQAPGKVLKWMGFINTYTGEPTYADDFKGRFAFSLETSASTAYLQINNLKNEDTATYFCTRTRGYYDFDGGAFDYWGQGTSLTVSS
VL: DIVMTQSQKFMSTSIGDRVSVTCKASQNVGTHLAWYQQKPGQSPKALIFSASYRYIGVPDRFTGSGSGTDFTLTITNVQSEDLAEYFCQQYNTYPLTFGAGTKLELK
As for B1, the Kd is 1.89 nM in test [1]; 3.82 nM in test [2]; 5270 nM in [3]; 1.89 nM in test [7]; 5270 nM in test [8]. Besides, the dissociation rate constant (koff) in test [1] was determined as 0.000274 s⁻¹; in test [2] it was 0.000238 s⁻¹; in [3], 0.0247 s⁻¹; in [6], 5.73e-05 s⁻¹. The kon was determined as 145000 M⁻¹ s⁻¹ in test [1], 62100 M⁻¹ s⁻¹ in test [2], 4690 M⁻¹ s⁻¹ in test [3] and 93500 M⁻¹ s⁻¹ in test [6]. In addition, the 50% effective concentration (EC50 (read off the curve)) in test [4] and in [5] was about 0.3 µg/mL each time. Further, the IC50 in test [9] turned out to be 1.03 nM.

B2: chimeric antibody 032c (antibody, V domains shown)
VH: EVRLEESGGGLVQPGGSMKLSCVVSGFTFRNYWMNWVRQSPERGLEWIAEITLKSNTYATHYAESVKGRFAISRDDSKSSFYLQMNDLRPEDTGIYYCTTFTKVVADWHLDVWGAGTTVTVSS
VL: DVLMTQTPLSLPVNLGDQASISCRSSQNIVHSNGNTYLEWYLQKPGQSPKLLIYKVSNRFSGVPDRFSGSGSGTDFTLRISRVEAEDLGVYYCFQGSHVPFTFGSGTKLEIK
In the case of B2, the binding result in [10] is given as “no binding (tested: 10 ug/ml)”.

The record behind these values is patent US20210347908A1 (ELPISCIENCE SUZHOU BIOPHARMA, published 2021).
